Reference: the supplement of paper PMC9112550, “Optimization of the antimicrobial peptide Bac7 by deep mutational scanning” (BMC Biology, 2022)

What follows are sequences tested on Escherichia coli TOP10 (assay: shrunken log2 fold change of peptide-encoding DNA abundance (4.5 h post-induction vs induction); higher = less antimicrobial activity (less host growth inhibition)). Conditions: time post-induction: 4.5 h; library: site-saturation at positions 5, 18, 19, 20.
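Further: peptides expressed intracellularly from a pBAD plasmid library in pooled LB shake-flask culture, induced with 0.3% L-arabinose, DNA abundance read by NGS, three biological replicates, DESeq2 with apeglm shrinkage.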

Q: RRIRRRPPRLPRPRPRPPQTPRP was tested. Which “shrunken log2 fold change” value did it give?
A: 0.828

Q: For RRIRLRPPRLPRPRPRPMTYPRP, which “shrunken log2 fold change” value is on record?
A: -0.0978

Q: For RRIRPRPPRLPRPRPRPHPWPRP, which “shrunken log2 fold change” value is on record?
A: 0.0817

Q: With RRIRERPPRLPRPRPRPTAEPRP as the sequence, how does the “shrunken log2 fold change” value read?
A: 0.265

Q: RRIRPRPPRLPRPRPRPNYFPRP was tested. Which “shrunken log2 fold change” value did it give?
A: -0.435

Q: How did the “shrunken log2 fold change” value turn out when RRIRERPPRLPRPRPRPMYRPRP was run?
A: -0.273

Q: Which “shrunken log2 fold change” value does the source give for RRIRPRPPRLPRPRPRPRIIPRP here?
A: -0.18

Q: How did the “shrunken log2 fold change” value turn out when RRIRPRPPRLPRPRPRPWSYPRP was run?
A: -0.214

Q: For RRIRGRPPRLPRPRPRPGYLPRP, which “shrunken log2 fold change” value is on record?
A: 0.0499

Q: With RRIRPRPPRLPRPRPRPPMDPRP as the sequence, how does the “shrunken log2 fold change” value read?
A: 0.126

Q: For RRIRHRPPRLPRPRPRPLLFPRP, which “shrunken log2 fold change” value is on record?
A: -0.364

Q: How did the “shrunken log2 fold change” value turn out when RRIRQRPPRLPRPRPRPMINPRP was run?
A: -0.0423

Q: Which “shrunken log2 fold change” value does the source give for RRIRSRPPRLPRPRPRPFCLPRP here?
A: -0.302

Q: Which “shrunken log2 fold change” value does the source give for RRIRNRPPRLPRPRPRPPNHPRP here?
A: 0.0878

Q: With RRIRERPPRLPRPRPRPCPWPRP as the sequence, how does the “shrunken log2 fold change” value read?
A: -0.278

Q: Which “shrunken log2 fold change” value does the source give for RRIRERPPRLPRPRPRPSRFPRP here?
A: 0.17

Q: Which “shrunken log2 fold change” value does the source give for RRIRTRPPRLPRPRPRPNSQPRP here?
A: -0.00223

Q: Which “shrunken log2 fold change” value does the source give for RRIRDRPPRLPRPRPRPEQDPRP here?
A: 1.39

Q: How did the “shrunken log2 fold change” value turn out when RRIRMRPPRLPRPRPRPPQSPRP was run?
A: 0.721

Q: Which “shrunken log2 fold change” value does the source give for RRIRYRPPRLPRPRPRPRGQPRP here?
A: 0.0255

Q: RRIRCRPPRLPRPRPRPTILPRP was tested. Which “shrunken log2 fold change” value did it give?
A: -0.646

Q: With RRIRHRPPRLPRPRPRPMCWPRP as the sequence, how does the “shrunken log2 fold change” value read?
A: -0.178

Q: With RRIRVRPPRLPRPRPRPGIHPRP as the sequence, how does the “shrunken log2 fold change” value read?
A: -0.118

Q: With RRIRKRPPRLPRPRPRPMPRPRP as the sequence, how does the “shrunken log2 fold change” value read?
A: 0.276

Q: RRIRQRPPRLPRPRPRPIMDPRP was tested. Which “shrunken log2 fold change” value did it give?
A: -0.179

Q: With RRIRHRPPRLPRPRPRPSQGPRP as the sequence, how does the “shrunken log2 fold change” value read?
A: 0.0306

Q: Which “shrunken log2 fold change” value does the source give for RRIRRRPPRLPRPRPRPAVKPRP here?
A: 0.0474

Q: RRIRARPPRLPRPRPRPSWDPRP was tested. Which “shrunken log2 fold change” value did it give?
A: 0.244

Q: How did the “shrunken log2 fold change” value turn out when RRIRRRPPRLPRPRPRPFTYPRP was run?
A: -0.22

Q: For RRIRWRPPRLPRPRPRPHRSPRP, which “shrunken log2 fold change” value is on record?
A: -0.243

Q: With RRIRKRPPRLPRPRPRPKWYPRP as the sequence, how does the “shrunken log2 fold change” value read?
A: -0.235

Q: How did the “shrunken log2 fold change” value turn out when RRIRARPPRLPRPRPRPLGHPRP was run?
A: 0.134

Q: With RRIRNRPPRLPRPRPRPWGWPRP as the sequence, how does the “shrunken log2 fold change” value read?
A: 0.242

Q: Which “shrunken log2 fold change” value does the source give for RRIRIRPPRLPRPRPRPNIDPRP here?
A: -0.619

Q: How did the “shrunken log2 fold change” value turn out when RRIRYRPPRLPRPRPRPVRRPRP was run?
A: 0.0834

Q: How did the “shrunken log2 fold change” value turn out when RRIRHRPPRLPRPRPRPVMVPRP was run?
A: -2.78e-05

Q: Which “shrunken log2 fold change” value does the source give for RRIRIRPPRLPRPRPRPPGSPRP here?
A: 0.0671

Q: How did the “shrunken log2 fold change” value turn out when RRIRLRPPRLPRPRPRPKILPRP was run?
A: -0.143

Q: RRIRGRPPRLPRPRPRPWSNPRP was tested. Which “shrunken log2 fold change” value did it give?
A: -0.116

Q: How did the “shrunken log2 fold change” value turn out when RRIRVRPPRLPRPRPRPCMSPRP was run?
A: -0.0664

Q: RRIRMRPPRLPRPRPRPVYQPRP was tested. Which “shrunken log2 fold change” value did it give?
A: -0.372

Q: Which “shrunken log2 fold change” value does the source give for RRIRERPPRLPRPRPRPINHPRP here?
A: 0.198

Q: With RRIRDRPPRLPRPRPRPWECPRP as the sequence, how does the “shrunken log2 fold change” value read?
A: -0.0018

Q: Which “shrunken log2 fold change” value does the source give for RRIRQRPPRLPRPRPRPRLAPRP here?
A: 0.594

Q: Which “shrunken log2 fold change” value does the source give for RRIRYRPPRLPRPRPRPSWWPRP here?
A: -0.511

Q: RRIRNRPPRLPRPRPRPCGFPRP was tested. Which “shrunken log2 fold change” value did it give?
A: -0.0155

Q: How did the “shrunken log2 fold change” value turn out when RRIRSRPPRLPRPRPRPKKGPRP was run?
A: 0.0379

Q: With RRIRFRPPRLPRPRPRPGWRPRP as the sequence, how does the “shrunken log2 fold change” value read?
A: 0.536

Q: Which “shrunken log2 fold change” value does the source give for RRIRIRPPRLPRPRPRPFCTPRP here?
A: -0.542

Q: How did the “shrunken log2 fold change” value turn out when RRIRPRPPRLPRPRPRPCEEPRP was run?
A: 0.205

Q: Which “shrunken log2 fold change” value does the source give for RRIRPRPPRLPRPRPRPHNVPRP here?
A: -0.104

Q: RRIRVRPPRLPRPRPRPCVGPRP was tested. Which “shrunken log2 fold change” value did it give?
A: 0.00147

Q: With RRIRWRPPRLPRPRPRPPICPRP as the sequence, how does the “shrunken log2 fold change” value read?
A: -0.0702

Q: How did the “shrunken log2 fold change” value turn out when RRIRPRPPRLPRPRPRPAVDPRP was run?
A: 0.249

Q: RRIRNRPPRLPRPRPRPTKHPRP was tested. Which “shrunken log2 fold change” value did it give?
A: -0.0431

Q: How did the “shrunken log2 fold change” value turn out when RRIRLRPPRLPRPRPRPKPVPRP was run?
A: 0.165

Q: How did the “shrunken log2 fold change” value turn out when RRIRARPPRLPRPRPRPKILPRP was run?
A: -0.168

Q: How did the “shrunken log2 fold change” value turn out when RRIRTRPPRLPRPRPRPVYFPRP was run?
A: -0.558

Q: How did the “shrunken log2 fold change” value turn out when RRIRNRPPRLPRPRPRPFAHPRP was run?
A: -0.00369

Q: RRIRKRPPRLPRPRPRPEVSPRP was tested. Which “shrunken log2 fold change” value did it give?
A: 0.219

Q: For RRIRLRPPRLPRPRPRPGMIPRP, which “shrunken log2 fold change” value is on record?
A: -0.419

Q: With RRIRIRPPRLPRPRPRPMECPRP as the sequence, how does the “shrunken log2 fold change” value read?
A: -0.153

Q: RRIRERPPRLPRPRPRPRMRPRP was tested. Which “shrunken log2 fold change” value did it give?
A: 0.506

Q: RRIRPRPPRLPRPRPRPRQDPRP was tested. Which “shrunken log2 fold change” value did it give?
A: 0.351

Q: Which “shrunken log2 fold change” value does the source give for RRIRFRPPRLPRPRPRPRMMPRP here?
A: -0.404

Q: How did the “shrunken log2 fold change” value turn out when RRIRFRPPRLPRPRPRPDTWPRP was run?
A: 0.0899

Q: Which “shrunken log2 fold change” value does the source give for RRIRYRPPRLPRPRPRPQDNPRP here?
A: -0.024

Q: With RRIRERPPRLPRPRPRPLGHPRP as the sequence, how does the “shrunken log2 fold change” value read?
A: 0.187

Q: Which “shrunken log2 fold change” value does the source give for RRIRYRPPRLPRPRPRPNLNPRP here?
A: -0.393

Q: For RRIRKRPPRLPRPRPRPCCKPRP, which “shrunken log2 fold change” value is on record?
A: 0.099

Q: For RRIRHRPPRLPRPRPRPQLSPRP, which “shrunken log2 fold change” value is on record?
A: -0.000101

Q: With RRIRMRPPRLPRPRPRPPKFPRP as the sequence, how does the “shrunken log2 fold change” value read?
A: 0.166

Q: Which “shrunken log2 fold change” value does the source give for RRIRVRPPRLPRPRPRPGVAPRP here?
A: 0.377

Q: For RRIRTRPPRLPRPRPRPQSQPRP, which “shrunken log2 fold change” value is on record?
A: -0.138

Q: How did the “shrunken log2 fold change” value turn out when RRIRQRPPRLPRPRPRPFSSPRP was run?
A: -0.0951
